In publication PMC2194224:

Biological target: purified M22 (Sir22) protein (Streptococcus pyogenes)
Test: radioligand binding

Substance: human C4b-binding protein (C4BP) (from UniProt P04003 49-597; P20851 18-252) (complex)
- percent of radiolabeled ligand bound in the absence of antiserum: 25%
